This is an account of results in patent US20260028391A1.

Several values for one entry are separate records, joined by “and”; a condition that tells them apart may be missing. Equal entries are not always repeated.

The target of test [1] is biot-MPV-F wt (metapneumovirus (MPV)). As to the kind of experiment: BLI, SA sensor loaded with biot-MPV-F wt, mAb 5 ug/ml, 4 min association, 6 min dissociation.
Test [2] shares this target. As to the kind of experiment: BLI (Octet), biotinylated F on SA sensors, mAb 5 µg/ml; forced deamidation sample, day 7 at 40 °C.
In test [3] the target is biot-MPV-F D280N (metapneumovirus (MPV)). The test is described as above.
The target of test [4] is biot-RSV-F wt (respiratory syncytial virus (RSV)). The description is as above.
In test [5] the target is biot-MPV-F wt (metapneumovirus (MPV)). As to the kind of experiment: BLI (Octet), biotinylated F on SA sensors, mAb 5 µg/ml; forced deamidation sample, day 0.
Test [6] concerns the target biot-MPV-F D280N (metapneumovirus (MPV)). Described as above.
For test [7], the target named is biot-RSV-F wt (respiratory syncytial virus (RSV)). The test is described as above.
Test [8] shares this target. As to the kind of experiment: BLI, SA sensor loaded with biot-RSV-F wt, mAb 5 ug/ml, 4 min association, 6 min dissociation.
Test [9] concerns the target biot-MPV-F wt (metapneumovirus (MPV)). As to the kind of experiment: BLI (Octet), biotinylated F on SA sensors, mAb 5 µg/ml; forced deamidation sample, day 13 at 40 °C.
Test [10] deals with biot-MPV-F D280N (metapneumovirus (MPV)). The test is described as above.
The target in test [11] is biot-RSV-F wt (respiratory syncytial virus (RSV)). The description is as above.
Test [12] has as its target biot-MPV-F wt (metapneumovirus (MPV)). As to the kind of experiment: BLI (Octet), biotinylated F on SA sensors, mAb 5 µg/ml; batch KYT.
Test [13] deals with biot-MPV-F D280N (metapneumovirus (MPV)). The description is as above.
For test [14], the target named is biot-RSV-F wt (respiratory syncytial virus (RSV)). The description is as above.
Test [15] addresses biot-MPV-F D280N (metapneumovirus (MPV)). As to the kind of experiment: BLI, SA sensor loaded with biot-MPV-F D280N (sheet title 'MPV-G D280N'), mAb 5 ug/ml, 4 min association, 6 min dissociation.
Test [16] deals with RSV F A N208Y-N671I (RSV A, strain A2) (UniProt P03420). As to the kind of experiment: FACS, % binding to RSV F A variants.
Test [17] deals with RSV F A S433P-G446E (RSV A, strain A2) (UniProt P03420). As to the kind of experiment: FACS, % binding to RSV F A variants.
For test [18], the target named is RSV F A S433P (RSV A, strain A2) (UniProt P03420). As to the kind of experiment: FACS, % binding to RSV F A variants.
In test [19] the target is MPV fusion glycoprotein MPV-F N280 (metapneumovirus (strain not stated)). As to the kind of experiment: SPR; sensors loaded with F protein, mAb in solution.
Test [20] has as its target MPV fusion glycoprotein MPV-F D280 (metapneumovirus (strain not stated)). The test is described as above.
Test [21] addresses fusion glycoprotein of Human Metapneumovirus-GFP CAN97-83 (Vira Tree M121) (human metapneumovirus CAN97-83) (UniProt Q6WB98). As to the kind of experiment: cell-based or functional assay.
Test [22] concerns the target fusion glycoprotein of the MPV D280 used in the neutralization assay of Example 3 (metapneumovirus (strain not stated)). As to the kind of experiment: cell-based or functional assay.
The target in test [23] is fusion glycoprotein of Human metapneumovirus-TN/96-213 (BEI NR-22243) (human metapneumovirus TN/96-213). As to the kind of experiment: cell-based or functional assay.
For test [24], the target named is MPV fusion glycoprotein with the D280N mutation (MPV-F N280), recombinant protein loaded on sensors (metapneumovirus (MPV), strain not stated). As to the kind of experiment: same manner as Experiment 1, RUN10, MPV-F D280 or MPV-F N280 on the sensors (Example 6, Experiment 3).
Test [25] has as its target MPV fusion glycoprotein MPV-F N280 (metapneumovirus (strain not stated)). As to the kind of experiment: SPR; sensors loaded with MPV-F, mAb in solution (Experiment 3).
In test [26] the target is MPV fusion glycoprotein MPV-F D280 (metapneumovirus (strain not stated)). The description is as above.

B1: MPK190-rIgG1-LS (antibody, V domains shown)
VH: EVQLVESGGGLVKPGGSLTLSCAASGFSISGYGMNWVRQAPGRGLEWVASISASSTYIYYADSMKGRFTISRDNGKTSLYLQMKSLRAEDTAVYYCARAPIEPPYFDLWGRGTLVTVSS
VL: QSVLTQPPSVSGAPGQRVTISCTGSNSNIGAGYDVHWYQHLPGKAPKVLIYGNNNRPSVVPDRFSGSNSGASASLAISGLQAEDEADYFCQSYDRRLSGPIFGGGTKLTVL
Regarding B1, the dissociation constant (Kd) was less than 0.001 nM in test [1]; 0.0159 nM in [2]; 0.6 nM in test [3]; 0.128 nM in test [4]; less than 0.001 nM in [5]; 0.441 nM in test [6]. The Kd was less than 0.001 nM in test [7]; less than 0.001 nM in test [8]; 0.0577 nM in [9]; 0.733 nM in test [10]; 0.304 nM in test [11]; less than 0.001 nM in [12]. For the same molecule, the values for the Kd in test [13], in [14] and in test [15] were 0.37 nM, 0.0539 nM and 0.381 nM, respectively.

B2: MPK65-v2-v1.2 (antibody, V domains shown)
VH: QVPLVQSGAEVKKPGESLKISCKGSGYSFINYWIGWVRQMPGKGLEWMGVIYPFDSDTKYSPSFQGHVTISADKSSNTAYVQWSSLKASDTAMYYCARFTFGIAVVTDDVSGEGQAFEIWGQGTMVTVSS
VL: QIVMMQSPATLSVSPGERATLSCRASQSVAGNLAWYQQRPGQAPRLLIYGASTRATGVPARFSGSGSETEFTLTISSLQSEDFAVYYCHQYSNLPQAFGQGTRLDIK
As for B2, the % binding in test [16] amounted to 0.38%; in test [17] it was 32.9%; in test [18], 31.7%.

B3: MPK15 (antibody, human IgG1, V domains shown)
VH: EVQLVESGGGLVKPGGSLRLSCTVSGITFSDAWMTWVRQAPGKGLEWVGRIKRKVDGETADYAPSVKGRFTISRDDSKSTLYLQMNSLKTEDTGLYYCLTTWSDQFWGQGTLVTVSS
VL: QSVVTQEPSLTVSPGGTVTLTCDSSSGAVTRGHYPFWFQQKPGQVPRTLIYDTSKKHSWTPARFSGSLLGDKAVLTLSGAQPEDEADYYCLLTYSGVRVFGGGTKLTVL
Regarding B3, the dissociation constant Kd in [19] came to 0.0574 nM; in test [20], 0.0784 nM; in test [24], 0.073 nM; in [25], 0.072 nM; in test [26], 0.071 nM. For the same molecule, the MPV D280 Neutralization by MPK15 in test [21] is 5.8; in test [23], 15.3. Moreover, in test [22], the MPV D280 Neutralization - IC50 was 3.81 ng/mL and 3.4 ng/mL.
